Results as given in the DeepSol protein solubility set.

experiment: soluble on expression in E. coli; label from the status in PepcDB or PDB records

Row | Sequence | soluble on expression in E. coli
1 | MSVIRKEDGAGGKYMVELLKKHVFPKIASRAGEIALEDMEDSSDFCDDFAFTTDSYVVSPPIFRGGSIGSLSVCGTSNDLAVMGAKPEFMSLALVIQDGFPLGDFRRIMDDIRDSVELVNLSIITGDTKVVESNVGIIVNTAGIGRRSEELERNLEVLRELRDYPYRWVRDKGLKEGDAIIVSGSIAEHAAVIMAERMGFEVEFKSDVYPVWLFVREALRRGGVTAMKDPTRGGIAAALNEMAEKSGVGIKIFEERIPLKDEVRGLCELLGLDPLTMANEGKVVFGVHPEMADEVLKALHKAGQKEAEIIGYATKEFAEVVLETAVGTTRVVPQPISDPIPRVC | not soluble
2 | MSVLEVKGLTKVYQSKGSVATTALNDINFKIEEGEFVGIMGPSGSGKTTLLNLLATIDKQTSGHVLVNGEEINQMRAAKLAEFRRTHLGFIFQDFNLLDTLSIKENIILPLVMAKKSVNEIDAKVLEIAKFLNIEEILNKKVYEVSGGQQQRAAAARAIIHEPTLILADEPTGNLDSKSAKSLMSALQDLHEQKRVTIAMVTHDPVAASYCERILFIRDGEIFSEIHKGRTKQAFFQEILDVLAMLGGEYHELSPARA | not soluble
3 | MSVSNTQFNPFGNHETNLKELKLQLEQVTSKSVKQIEDVKGLTVTLERLTEIAKNIPETAIQSLISEIVASFPKCVSVLGEKKPEDLRTASFISLLRRLNQFIQTIADRVTKPFDSDVLKEWAPIFVSLLTGKHSALKENGALLWKKTFGTVKNNLICPEDLRGILDSMPKRYAISVPQSTSSKTDGYFSDDEAMDGLPTSSAAGAGNNFKFPKIKTEVIESQSSFQFSQQPVADEVAEKLLKEQKLKAEETQSPKTSSTETSRRRTSRMALIDEDSCDFVAILTSPATRKNRLTDRQKEKLEEVSGPRTTINYMDEESQNGFVKTEQFKKALTAMNFEVEDESVSAPTSKNSENPEILPIDEIPTVHVESAKSDKTPEPVKKTNKRRRLFHDQPVSAFATESSRKPEIANNDLGEILEKLPEHASTKSPEQKRGRKDSAISCETSDDISDSMKSNDSRTIITQQEHAVEQKSRKKPGRPKNSRNRSETTRKSGRLSAIQNNACVTSESSMSNETGDVEKTDDKKESVQNIPEQEAAEKKEVDTTISDKRLSDTEEAIEENIVKSPPKTPRTPSILRVGKRMSTSSSPMTERKRNRVHFGEESLPVDVVSSPLTPRRRPLAEAAKNPFVEATVAASNSNLSDIQSSTNDSSFYPTLADCRDKIDRILPNLVTLCMKTVLDSAKRSLSAVGVKTVGDFASLSKSDIEKFTWIKGRVVGARNVLMQYEKTRNAERREEIVDGSEEKPMDVADAIPPEIEAVSPSSKDSQSVPMETKDNSPPANEVIAQELPKASPISNTPSVESTQPALNVQKTPEASQSPASPISSNTGSSTFTVDPTPVQKDLSVVLSRKNLAPIFCGGLKNFKKEQLCPQKQCEKAKDAEKSFVEDGRVLHRICVSLSNAHTQNHWPSENSSKLLSNINKASILFKNLVQTRGAGDWDDTDLENDDLSTAESDVATDVDVLVAVYKRFSRHHTSPMANNLPWRSVMECVNEAACLLESIFLTRAPNKGSM | not soluble
4 | MSYKFGKLAINKSELCLANVLQAGQSFRWIWDEKLNQYSTTMKIGQQEKYSVVILRQDEENEILEFVAVGDCGNQDALKTHLMKYFRLDVSLKHLFDNVWIPSDKAFAKLSPQGIRILAQEPWETLISFICSSNNNISRITRMCNSLCSNFGNLITTIDGVAYHSFPTSEELTSRATEAKLRELGFGYRAKYIIETARKLVNDKAEANITSDTTYLQSICKDAQYEDVREHLMSYNGVGPKVADCVCLMGLHMDGIVPVDVHVSRIAKRDYQISANKNHLKELRTKYNALPISRKKINLELDHIRLMLFKKWGSYAGWAQGVLFSKEIGGTSGSTTTGTIKKRKWDMIKETEAIVTKQMKLKVELSDLHIKEAKID | soluble
5 | MTAAIAAPAYDAIVIGSGIGGLVTATQLAAKGAKVLVLERYLIPGGSAGWFEREGYRFDFGASIIFGFGDPGTTNLLTPPLADVGQALETIPDPVQIHYHLPNQLDLKVHRDYEAFLQELIAQFPQEAEGIRRFYDECWQVFNCLNAMPLLSLEEPKYLFNVFLQHPLACLGLVKYLPQNVGDIARRYIRNPDLLKFIDMECYCWSVVPATMTPMINAGMVFSDRHYGGINYPKGGVGRIAEKLVAGLEAKGSSIRYKARVTRILTEKGRAIGVELADGEKLYAKRIISNATRWNTFGELLPPQQEPAQEQRWQQRYRQSPSFLSLHLGVKADLLPAGTECHHILLENWDELEVEQGTIFVSIPTLLDPSLAPPDRHIIHTFTPSWLGEWDNLSPSEYRDRKAAAAAKLIQRLEAIFPGLSSAIDYQEVGTPRTHRRFLGRQNGTYGPIPRRKLAGLLGMPFNRTAIPGLYCVGDSTFPGQGLNAVAFSGYACGHRVAADLGLVLEHHHHHH | not soluble
6 | MTADLPDEIDETPLDGEYAHDSSPTLLYAIKQVELAIRSHMDALLRPMGITALQYTALTVLRRRDGLSSAELARNSFVTAQTMGEMLSALERRGLVTRRVDPANRRRMLTSLTADALDLLAEYDTSICGLEEQMLADMSVRQRDAFRGYLGRCRIALAETPAH | not soluble
7 | MTAEVMSHVTAHFGKTLEECREESGLSVDILDEFKHFWSDDFDVVHRELGCAIICMSNKFSLMDDDVRMHHVNMDEYIKSFPNGQVLAEKMVKLIHNCEKQFDTETDDCTRVVKVAACFKEDSRKEGIAPEVAMVEAVIEKY | soluble
8 | MTAFRQRPLRLGHRGAPLKAKENTLESFRLALEAGLDGVELDVWPTRDGVFAVRHDPDTPLGPVFQVDYADLKAQEPDLPRLEEVLALKEAFPQAVFNVELKSFPGLGEEAARRLAALLRGREGVWVSSFDPLALLALRKAAPGLPLGFLMAEDHSALLPCLGVEAVHPHHALVTEEAVAGWRKRGLFVVAWTVNEEGEARRLLALGLDGLIGDRPEVLLPLGG | soluble
9 | MTALESSYLNLAYPPRLDLGPQLTHDQLRSSMQSTMARHKGGPVWLFAYGSLIWRPECSAVERKRGRVHGYHRGLYLWSHEHRGTPELPGLVFGLDRGGSCSGFAYRLPEEQLDASLYALWQREMPYPSYRPHWLNCRLEDGSQVQALGFVLERHLPSYAGNLPDDVLNQVFESACGRYGTTRDYVEQTVQALRSHAMPDRNLEARLKRCKGADAHLEHHHHHH | not soluble
10 | MTAWHRLPAAARALFGAKGGCTGSQRSYDDVLRVMYELTLRVVNPTYRNRTLANTSGKSAELVGLLVERLNMRRCLDTLRFVHVAGTKGKGTTASYTAALLEAYGLKVGLFTSPHVKDVRERIMVNNEVLPMDTFVHYFFQVVDCFVELAGADKEVTWDLPAPCSFFCLMFLVSLVAFAGESVDVAVVEVGIGGSRDPTNIIIPEASVITALGIDHTEILGDTVEEIALQKAGIMKPGVVCYAAPQGDHPSTRRVLKDYAEGVDSPLVFADDVAVPTDGWPCLSIGGEHAVENSRLALLAARSVMGIPLTQPLDDVERHVLQRTTVMGRSQVLPVGDGSKGTFYLDGAHTYESLRCATRWFVKESTKRTCDSKPRRVLLMYSSRQPERIVEAFRPFVDSFSKAVFVCALDPKGMREIWKNNSDAYTQDKATGLIRCWKTLCGAVPCFSRAAPFVSVEEVVEVVSAASSDDEDTSKPVQVFVTGSFFLVSDIVNLYDSQGS | not soluble
11 | MTCTTEIDILKWTVRYCSSLAAHLLTPTRLFKYEIQQQSDLRNATENKTEKYISDDVGHCRHTYMQIR | soluble
12 | MTDDKDVLRDVWFGRIPTCFTLYQDEITEREAEPYYLLLPRVSYLTLVTDKVKKHFQKVMRQEDVSEIWFEYEGTPLKWHYPIGLLFDLLASSSALPWNITVHFKSFPEKDLLHCPCKDAVEAHFMSCVKEADALKHKSQVINEMQRKDHKQLWMGLQNDLTSFGPSTGNSWNTLQKKMDFVISLLEYIRPQLNGLSFRSCSVLWPQMDSCIPLEIS | not soluble
13 | MTDESDALCATEKEIMHATHRALVNSGYAELSISRISDELDKAKSTIYHYYDSKDALLLRFLRFTVDRFEATINTSIGDNPKEDLNHIISTLLPCQLPEEKRQLHSVLVTLSPQALERAVFREQFTEIDTRLATIIEKTVRRGVDADVFRDVDPTHAAEHILATIKGTMYSRLTTNREAATAAAKASLFSYIDSHLIS | not soluble
14 | MTDFLEIRPLTKEAFTPFGDVIETTPSSMRHINGGQTERHHALSAPEAAGEGARIILNIFRGQPRVFPHKIDMMERHPLGSQSFSPLSGRPFLVVVAQDDGGRPARPQVFLARGDQGVNYRRNVWHYPLMPLQAVSDFLVADREGPGNNLEEYFFDEPFMIAEPSLAAALEHHHHHH | soluble
15 | MTDFSVWETAPFGATVDHILQRYHNVHRAQFEELVPLAQKVAQVHADTFPAEIAELLAYMQNELLMHMMKEERMLFPMINQGVGRGAAMPIGVMMHEHEEHDRAIARLKELTDNFQPPEGACGSWTRLYALAKEMVEDLNDHIHLENDILFARVLDS | soluble
16 | MTDIIIVHSKHGNSKNHWYEWLRHNLTLEGYDVSLFNLEANDHAQIDEWVNEMKQQLHIRKKDTYFVTHGFGSIAALKFLEETHHHIEGFFSIAGFKEDAQDIDEDVDLKGVTIDYDKIKEQVDKFYGLTSKDDQYVSYKETQRLMNSLNGHTRVVEDGGHFLEEEGFVTFTSLINRMQGYMTRLEHHHHHH | not soluble
17 | MTDIISQNENKDDFEDGELPEDGEICDDEDESVKAVPSKSSESAPGAHIAPAHPEKTSGRDSRERVRRFEGNSPPRERDPDPFGSHNDAPDGNDYFGGDKDYRSGAAASSEEEPFSDTDYRVNRRRRLSPSHDDGDFDPRSKRPYYGGRGGFRGGFRNGAKPRFQTEHQICKFFREGYCRDGDNCLYSHQAEDSLRRPVLCNFYANSFCKKGLQCLMLHGEFPCKSFHKGQCNHDPCRFSHVPLTDYTRPIIEKILADEEARQAHQAQQAQTYRQNPVANAAAAAAAAQVMPRRRVLLPGGPNMNGSSPPHATPVIHAPIPQASHPSQLPPPAVVVPTIQRNPGPGIPIHQQYPVAPAAGGYFNQGPRPEQVQGLPPPRTIEPPRLSTQTPPIMHQQQPQLMRPMHPVPIQHPHLQQPGLVQPPQIVSQERHTASPQGFNLEAMLNKMANGEKLISSPRNNVVDDSPASPPPSNYSSMFGSSNRVAVIPQTVQVTWGLVRVQRRLPYSNVENPDRIAANDPRRAKAIAKQFDAFSSLLGAGGNAVSDPRLRAQKEKNDRQQNTMPFSSWMPQIS | not soluble
18 | MTDKTIAFSLLDLAPIPEGSSAREAFSHSLDLARLAEKRGYHRYWLAEHHNMTGIASAATSVLIGYLAANTTTLHLGSGGVMLPNHSPLVIAEQFGTLNTLYPGRIDLGLGRAPGSDQRTMMALRRHMSGDIDNFPRDVAELVDWFDARDPNPHVRPVPGYGEKIPVWLLGSSLYSAQLAAQLGLPFAFASHFAPDMLFQALHLYRSNFKPSARLEKPYAMVCINIIAADSNRDAEFLFTSMQQAFVKLRRGETGQLPPPIQNMDQFWSPSEQYGVQQALSMSLVGDKAKVRHGLQSILRETDADEIMVNGQIFDHQARLHSFELAMDVKEELLG | soluble
19 | MTDKTSLSYKDAGVDIDAGNALVGRIKGVVKKTRRPEVMGGLGGFGALCALPQKYREPVLVSGTDGVGTKLRLAMDLKRHDTIGIDLVAMCVNDLVVQGAEPLFFLDYYATGKLDVDTASAVISGIAEGCLQSGCSLVGGETAEMPGMYHGEDYDVAGFCVGVVEKSEIIDGSKVSDGDVLIALGSSGPHSNGYSLVRKILEVSGCDPQTTELDGKPLADHLLAPTRIYVKSVLELIEKVDVHAIAHLTGGGFWENIPRVLPDNTQAVIDESSWQWPEVFNWLQTAGNVEHHEMYRTFNCGVGMIIALPAPEVDKALALLNANGENAWKIGIIKASDSEQRVVIE | soluble
